Biological target: tau 2N4R (tau-441) wild type (human, UniProt P10636-8 1-441)
Assay: EMSA

B1: 24-bp dsDNA (dsDNA)
DNA 1: TCGACACGGAAATGTTGAATACTA
DNA 2: TAGTATTCAACATTTCCGTGTCGA
B1: binds.
